# Assay: yeast display, Sf9 membrane polyspecificity reagent, FACS + sequencing; frameworks hold sequencing errors
# How it was run: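 Galactose induction of a Saccharomyces cerevisiae BJ5465 synthetic nanobody display library ran 36–48 hours. The cells were then stained for 1 hour at 4 °C with 10% biotinylated, detergent-solubilized Sf9 membrane reagent, pulled down on streptavidin microbeads and FACS-sorted into low and high (top ~1%) gates on expression and reagent-binding fluorescence. Labels for polyreactivity follow the gate of origin.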
row,Sequence,polyreactivity (PSR sort gate)
1,QVQLVESGGGLVQAGGSLRLICAASGFIFGHYAMGWYRQAPGNERELVAAISTGGDGTYYADSVKGRFTISRDNAKNTVYLQMNSLKPEDTAVYYCAVRHRASGILYYYWGQATQVTVSS,low polyreactivity
2,QVQLVESGGGLVQAGGSLRLICAASGFIFGNYAMGWYRQAPGKERELVATITWRGGSTYYADSVKGRFTISRDNAKNTVYLQMNSLKPEDTAVYYCARPYASYRSFYYYGYWGQGTQVTVSS,high polyreactivity
3,QVQLVESGGGLVQAGGSLRLICAASGFIFGSYAMGWYRQAPAKERELVAAINYDGGSTYYADSVKGRFTISRDNAKNTVYLQMNSMKPEDTAVYYCAADLYYTHMDYWGQGTQVTVSS,low polyreactivity
4,QVQLVESGGGLVQAGGSLRLICAASGFIFIGYAMGWYRQARGKERELVAAISWRGGTYYADSVKGRFTISRDNAKNSVYLQMNSLKPEDTAVYYCAARTRNAVRSGSGKYDYCGQGTQVTVSS,low polyreactivity
5,QVQLVESGGGLVQAGGSLRLICAASGFIFKWNAMGWYRQAPGKERELVAAITSGGGTYYADSVKGRFTISRDNAKNTVYLQMNSLKPEDTAVYYCAALGRYWPARRFDYWGQGTQVTVSS,high polyreactivity
6,QVQLVESGGGLVQAGGSLRLICAASGFIFSAYAMGWYRQAPGKERELVAAISYSGGTTYYADSVKGRFTISRDNAKNTVYLQMNSLKPEDTAVYYCAAGVGYWGQGTQVTVSS,high polyreactivity
7,QVQLVESGGGLVQAGGSLRLICAASGFIFSTYAMGWYRQAPGKERELVAAISWSGGRTNYADSVKGRFTISRDNAKNTVYLQMNSLKPEDTAVYYCARYGHSGRQYKYDYWGQGTQVTVSS,high polyreactivity
8,QVQLVESGGGLVQAGGSLRLICAASGFIFWDNAMGWYRQAPGKERELVAAISKSGTRTYYADSVKGRFTISRDNEKNTVYLQMNSLKPEDTAVYYCAAEGSGYEYYYWGQGTQVTVSS,high polyreactivity
9,QVQLVESGGGLVQAGGSLRLICAASGFSFRYYDMGWYRQAPGKERELVAAISRSGGRTYYADSVKGRFTISRDNAKNSVYLQMNSLNPEDTAVYYCNAVYNVVLSRVIYARGYWGQGTQVTVSS,high polyreactivity
10,QVQLVESGGGLVQAGGSLRLICAASGFTFASYGMGWYRQARGKERELVAAISWSGGRTYYADSVKGRFTISRDNATNTVYLQMNSLKPEDSAVYYSNAYWNPASKYDYWGQGTQVTVSS,high polyreactivity
11,QVQLVESGGGLVQAGGSLRLICAASGFTFAYYAMGWYRQATGKERELVAAISSGGGTYYADSVKGRFTISRDNAKNTVYLQMNSLKPEDTAVYYCNARYYFVFGRYNYWGQGTQVTVSS,high polyreactivity
12,QVQLVESGGGLVQAGGSLRLICAASGFTFGYNDMGWYRQAPGKERELVATITRSAGRTYYADSVKGRFTISRDNAKNTVYLQMNSLKPEDTAVYYCASSYWDTEPGYREYDYWGQGTQVTVSS,low polyreactivity
13,QVQLVESGGGLVQAGGSLRLICAASGFTFHSYAMGWYRQAPGKERELVAAITTDGSTYYADSVKGRFTISRDNAKNTVYLQMTSLKPEDTAVYYCAAGKAYWYARKPYARYYYWGQGTQVTVSS,high polyreactivity
14,QVQLVESGGGLVQAGGSLRLICAASGFTFRNNAMGWYRQAPGKERELVARITFRGGSTYYADSVKGSFTISRDNAKNTVYLQMNSLNPEHTAVYYCAVDWLSVTSTIKFVMDYWGQGTQVTVSS,low polyreactivity
15,QVQLVESGGGLVQAGGSLRLICAASGFTFRVYSMGWYRQAPGKEREFVASISWTGDTTYYADSVKGRFTISRDNAKNTVYLQMNSLKPEDTEVYYCAVDTILGYDYWGQVTQVTVSS,low polyreactivity
16,QVQLVESGGGLVQAGGSLRLICAASGFTFYIYAMGWYRQAPGKERELVAAINFRGGSTYYADSVKGRFTLSRDNAKNTVYLQMNSLKPEDTAVYYCAAVPRTYSGYYYWGQGTKVTVSS,high polyreactivity
17,QVQLVESGGGLVQAGGSLRLICAASGFTIGPYAMGWSRQAPGKERELVAAITIRGGSTYADSVKGRFTISRDNAKNTVYFQMNSLKTEDTAVSYCATVRALEYNYWGQGTQVTVSS,low polyreactivity
18,QVQLVESGGGLVQAGGSLRLICAASGFTIVPNAMGWYRQAPGKERELVAAISRSTGGTYYADSVKGRFTISRDNAKNTVYLQMNSLKPEDTAVYYCAAEYWYWTYGMDYWGQGTQVTVSS,high polyreactivity
19,QVQLVESGGGLVQAGGSLRLICAASGFTIWWYAMGWYRQAPGKERELVATITSGGRTYYADSVKGRFTISRDNAKNTVYLQMNSLKPEDTAVYYCAAESEVGYVYDPMYYLGQGTQVTVSS,high polyreactivity
20,QVQLVESGGGLVQAGGSLRLICAASGGIFATYAMGWYRQAPGKEMELVAAITKRGGSTYYADSVKGRFTISRDNAKNTVYLQMNSLTPEDTAVYYCAAKGYRWFRLGGYYFKFDYWGQGTQVTVSS,high polyreactivity
21,QVQLVESGGGLVQAGGSLRLICAASGIIFDGNAMGWYRQAPGKERELVASITSDSSTNYADSVKGRFTISRDNAKNTVYLQMNSLKPEDTAVYYCAADHWIAPRRDYWGQGTQVTVSS,low polyreactivity
22,QVQLVESGGGLVQAGGSLRLICAASGIIFGGYDMGWYRQAPGKERELVAGIRSGGSTYYADSVKGRFTISRDNAKNTVYLQMNSLKPEDTAVYYCAKYVPIPYYSYLFGSYDYWGQGTQVTVSS,low polyreactivity
23,QVQLVESGGGLVQAGGSLRLICAASGIIFSSNAMGWSRQAPGKERELVAAISNTGRTNYADSVKGRFTISRDNAKNTVYLQLNSLKPEDTAVYYCAARLSRRYYSYYYWGQGTQVTVSS,high polyreactivity
24,QVQLVESGGGLVQAGGSLRLICAASGIIFTYNAMGWYRQAPGKERELVAAINGGSSTNYADSVKGRFTISRDNAKNTVYLQMNSLKPEDTAVYDCAADVIPDGVKKPRMYYWGQGTQVTVSS,low polyreactivity
25,QVQLVESGGGLVQAGGSLRLICAASGIIFVPNAMGWYSQAPGKERELVAAIDRGGGTTYADSVKGRFTISRDNAKNTVYLQMNSLKPEDTAVYYCAAAWGVGPDQGHDYWGQGTQVTVSS,low polyreactivity
26,QVQLVESGGGLVQAGGSLRLICAASGITFAWYAMGWYRQAPGKERELVAAIDDRGGSTYYADSVKWRFTISRDNAKNTVYLQMYSLKPEDTAVYYCNADTPSYEPYRLDYLGQGTQVTVSS,low polyreactivity
27,QVQLVESGGGLVQAGGSLRLICAASGITFNKYSMGWYRQAPGKERELVAAISSRGCSTYYADSVKGRFTISRDNAKNTVYLQMNSLKPEYTAVYYCAAERGTTYAYDYWGQGTQVTVSS,high polyreactivity
28,QVQLVESGGGLVQAGGSLRLICAASGITFTGYAMGWYRQAPGKERELVAAITRRGGRTYYADSVKGRFTISRDNAKNTVYLQMNSLKPEDTAVYYCARDNGSPYHYYYWGQGTQVTVSS,high polyreactivity
29,QVQLVESGGGLVQAGGSLRLICAASGITFYYYAMGWYRQAPGKERELVAAITFTGGSTYYADSVKGRFTISRDNAKNTVYLQMNSLKPEDTAVYYCNRLGPLGDQQQYDYWGQGTQVTVSS,low polyreactivity
30,QVQLVESGGGLVQAGGSLRLICAASGLIFWGYAMGWYRQAPGKERELVAAISSSGGSTYYADSVKGRFTISRDNAKNTVYLQINSLKPEDTAVYYCNADYTYYPGYDYWGQGTLVTVSS,low polyreactivity

# — the nanobody polyreactivity screen of Harvey et al. (2022)
